Experimental findings from patent US20050282743A1, “Molecular interactions in cells” (Arbor Vita Corporation, priority 2001, published 2005) are described below.

Ends that are not written are not given here. Peptide text beside a SMILES is read from it. * marks the point of attachment. Biotin = O=C1N[C@H]2[C@H](CS[C@H]2CCCCC(=O)*)N1

What all share (test): G' assay (10 uM PL peptide), results of TABLE 7 and TABLE 12
Common to all, as to assay type: binding

For experiment [1], the target named is T1, PDZ protein (GST-PDZ fusion) (Homo sapiens, UniProt O60307).
T1 construct: made in house; host or cells: E. coli (DH5alpha, BL21 or JM109)
T1 sequence (O60307 whole entry, the tested form may be a part): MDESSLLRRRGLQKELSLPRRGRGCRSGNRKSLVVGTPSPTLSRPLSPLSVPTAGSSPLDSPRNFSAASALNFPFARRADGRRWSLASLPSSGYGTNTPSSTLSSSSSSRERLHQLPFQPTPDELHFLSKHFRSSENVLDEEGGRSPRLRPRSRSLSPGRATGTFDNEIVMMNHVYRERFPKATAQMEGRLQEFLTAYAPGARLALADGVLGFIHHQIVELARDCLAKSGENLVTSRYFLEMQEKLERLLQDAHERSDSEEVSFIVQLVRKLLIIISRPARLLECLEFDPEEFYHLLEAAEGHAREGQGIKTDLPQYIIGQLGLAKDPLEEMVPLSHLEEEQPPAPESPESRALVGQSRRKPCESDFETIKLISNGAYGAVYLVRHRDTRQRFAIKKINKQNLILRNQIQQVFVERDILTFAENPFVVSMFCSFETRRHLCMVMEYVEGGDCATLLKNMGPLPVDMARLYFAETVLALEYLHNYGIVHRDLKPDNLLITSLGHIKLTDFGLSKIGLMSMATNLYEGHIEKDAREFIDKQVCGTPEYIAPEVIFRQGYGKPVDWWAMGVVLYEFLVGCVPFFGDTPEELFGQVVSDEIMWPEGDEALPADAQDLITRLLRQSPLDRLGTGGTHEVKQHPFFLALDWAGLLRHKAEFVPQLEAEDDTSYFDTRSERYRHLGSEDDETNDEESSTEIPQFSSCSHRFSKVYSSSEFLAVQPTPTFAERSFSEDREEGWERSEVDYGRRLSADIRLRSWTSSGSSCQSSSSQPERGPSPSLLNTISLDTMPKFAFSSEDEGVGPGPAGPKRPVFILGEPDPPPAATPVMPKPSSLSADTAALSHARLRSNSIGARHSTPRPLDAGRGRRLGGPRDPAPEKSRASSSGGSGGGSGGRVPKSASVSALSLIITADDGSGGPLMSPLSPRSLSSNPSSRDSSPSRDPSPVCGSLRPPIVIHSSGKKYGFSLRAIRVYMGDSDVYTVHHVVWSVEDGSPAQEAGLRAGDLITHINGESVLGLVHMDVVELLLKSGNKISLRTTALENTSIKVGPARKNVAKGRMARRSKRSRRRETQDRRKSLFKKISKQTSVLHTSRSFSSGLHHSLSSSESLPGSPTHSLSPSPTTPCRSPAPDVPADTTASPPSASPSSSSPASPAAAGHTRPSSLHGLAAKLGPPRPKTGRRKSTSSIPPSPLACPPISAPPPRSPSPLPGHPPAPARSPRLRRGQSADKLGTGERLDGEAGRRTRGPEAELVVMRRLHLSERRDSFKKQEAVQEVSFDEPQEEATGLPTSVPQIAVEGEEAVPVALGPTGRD
To be noted: PDZ KIAA0561, PDZ Domain 1. An outline of the steps:
(§1)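 Binding classes derive from A450 nm of bound biotin-tagged PL peptide. A score of 5 needs A450 above 4 in more than two repeats.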

Experiment [2] has as its target T2, PDZ protein (GST-PDZ fusion) (Rattus norvegicus, UniProt Q9JLU4).
T2 construct: made in house; host or cells: E. coli (DH5alpha, BL21 or JM109)
To be noted: PDZ rat SHANK 3, PDZ Domain 1. In a few lines: as §1

The target of experiment [3] is T3, PDZ protein (GST-PDZ fusion) (Homo sapiens, UniProt Q9UQ26).
T3 construct: made in house; host or cells: E. coli (DH5alpha, BL21 or JM109)
T3 sequence (Q9UQ26 1-1411): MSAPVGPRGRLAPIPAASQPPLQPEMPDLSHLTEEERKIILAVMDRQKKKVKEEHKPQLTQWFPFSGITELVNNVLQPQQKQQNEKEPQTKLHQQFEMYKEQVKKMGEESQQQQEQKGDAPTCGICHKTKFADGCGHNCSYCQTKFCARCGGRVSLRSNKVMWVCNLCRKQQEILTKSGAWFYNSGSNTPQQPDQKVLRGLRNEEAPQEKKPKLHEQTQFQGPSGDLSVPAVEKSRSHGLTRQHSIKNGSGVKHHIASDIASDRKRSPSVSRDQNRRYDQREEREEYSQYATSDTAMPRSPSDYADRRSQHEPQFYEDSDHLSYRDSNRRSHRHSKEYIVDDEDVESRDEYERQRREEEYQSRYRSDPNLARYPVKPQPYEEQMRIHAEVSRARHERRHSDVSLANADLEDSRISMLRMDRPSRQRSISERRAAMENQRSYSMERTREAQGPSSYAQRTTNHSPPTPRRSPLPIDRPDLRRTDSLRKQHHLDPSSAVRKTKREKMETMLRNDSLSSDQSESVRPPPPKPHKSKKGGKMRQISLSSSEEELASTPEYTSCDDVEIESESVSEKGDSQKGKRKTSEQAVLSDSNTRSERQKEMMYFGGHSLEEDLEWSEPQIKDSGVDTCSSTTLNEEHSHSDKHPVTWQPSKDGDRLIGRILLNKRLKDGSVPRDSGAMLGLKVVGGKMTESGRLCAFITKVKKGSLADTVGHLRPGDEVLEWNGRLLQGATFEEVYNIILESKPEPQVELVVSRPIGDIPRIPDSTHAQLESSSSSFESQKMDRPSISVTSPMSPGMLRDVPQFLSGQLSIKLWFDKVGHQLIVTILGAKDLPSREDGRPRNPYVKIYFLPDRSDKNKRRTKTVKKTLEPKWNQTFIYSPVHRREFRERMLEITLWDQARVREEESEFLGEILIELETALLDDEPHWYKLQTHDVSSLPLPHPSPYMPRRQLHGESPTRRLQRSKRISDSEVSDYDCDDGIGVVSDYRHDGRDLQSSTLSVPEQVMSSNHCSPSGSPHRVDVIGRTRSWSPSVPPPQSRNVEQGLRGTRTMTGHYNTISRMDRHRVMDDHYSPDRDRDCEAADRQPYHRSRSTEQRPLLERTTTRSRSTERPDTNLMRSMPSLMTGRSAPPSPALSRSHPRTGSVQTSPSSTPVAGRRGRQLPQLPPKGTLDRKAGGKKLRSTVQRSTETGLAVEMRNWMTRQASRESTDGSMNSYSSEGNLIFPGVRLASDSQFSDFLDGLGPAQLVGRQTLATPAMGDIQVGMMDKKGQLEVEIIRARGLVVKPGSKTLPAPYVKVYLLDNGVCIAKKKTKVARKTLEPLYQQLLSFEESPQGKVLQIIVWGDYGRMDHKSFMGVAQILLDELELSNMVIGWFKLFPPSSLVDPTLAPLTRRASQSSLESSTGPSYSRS
The following applies: PDZ KIAA0751(L), PDZ Domain 1. In a few lines: as §1

T2 sequence (Q9JLU4 whole entry, the tested form may be a part): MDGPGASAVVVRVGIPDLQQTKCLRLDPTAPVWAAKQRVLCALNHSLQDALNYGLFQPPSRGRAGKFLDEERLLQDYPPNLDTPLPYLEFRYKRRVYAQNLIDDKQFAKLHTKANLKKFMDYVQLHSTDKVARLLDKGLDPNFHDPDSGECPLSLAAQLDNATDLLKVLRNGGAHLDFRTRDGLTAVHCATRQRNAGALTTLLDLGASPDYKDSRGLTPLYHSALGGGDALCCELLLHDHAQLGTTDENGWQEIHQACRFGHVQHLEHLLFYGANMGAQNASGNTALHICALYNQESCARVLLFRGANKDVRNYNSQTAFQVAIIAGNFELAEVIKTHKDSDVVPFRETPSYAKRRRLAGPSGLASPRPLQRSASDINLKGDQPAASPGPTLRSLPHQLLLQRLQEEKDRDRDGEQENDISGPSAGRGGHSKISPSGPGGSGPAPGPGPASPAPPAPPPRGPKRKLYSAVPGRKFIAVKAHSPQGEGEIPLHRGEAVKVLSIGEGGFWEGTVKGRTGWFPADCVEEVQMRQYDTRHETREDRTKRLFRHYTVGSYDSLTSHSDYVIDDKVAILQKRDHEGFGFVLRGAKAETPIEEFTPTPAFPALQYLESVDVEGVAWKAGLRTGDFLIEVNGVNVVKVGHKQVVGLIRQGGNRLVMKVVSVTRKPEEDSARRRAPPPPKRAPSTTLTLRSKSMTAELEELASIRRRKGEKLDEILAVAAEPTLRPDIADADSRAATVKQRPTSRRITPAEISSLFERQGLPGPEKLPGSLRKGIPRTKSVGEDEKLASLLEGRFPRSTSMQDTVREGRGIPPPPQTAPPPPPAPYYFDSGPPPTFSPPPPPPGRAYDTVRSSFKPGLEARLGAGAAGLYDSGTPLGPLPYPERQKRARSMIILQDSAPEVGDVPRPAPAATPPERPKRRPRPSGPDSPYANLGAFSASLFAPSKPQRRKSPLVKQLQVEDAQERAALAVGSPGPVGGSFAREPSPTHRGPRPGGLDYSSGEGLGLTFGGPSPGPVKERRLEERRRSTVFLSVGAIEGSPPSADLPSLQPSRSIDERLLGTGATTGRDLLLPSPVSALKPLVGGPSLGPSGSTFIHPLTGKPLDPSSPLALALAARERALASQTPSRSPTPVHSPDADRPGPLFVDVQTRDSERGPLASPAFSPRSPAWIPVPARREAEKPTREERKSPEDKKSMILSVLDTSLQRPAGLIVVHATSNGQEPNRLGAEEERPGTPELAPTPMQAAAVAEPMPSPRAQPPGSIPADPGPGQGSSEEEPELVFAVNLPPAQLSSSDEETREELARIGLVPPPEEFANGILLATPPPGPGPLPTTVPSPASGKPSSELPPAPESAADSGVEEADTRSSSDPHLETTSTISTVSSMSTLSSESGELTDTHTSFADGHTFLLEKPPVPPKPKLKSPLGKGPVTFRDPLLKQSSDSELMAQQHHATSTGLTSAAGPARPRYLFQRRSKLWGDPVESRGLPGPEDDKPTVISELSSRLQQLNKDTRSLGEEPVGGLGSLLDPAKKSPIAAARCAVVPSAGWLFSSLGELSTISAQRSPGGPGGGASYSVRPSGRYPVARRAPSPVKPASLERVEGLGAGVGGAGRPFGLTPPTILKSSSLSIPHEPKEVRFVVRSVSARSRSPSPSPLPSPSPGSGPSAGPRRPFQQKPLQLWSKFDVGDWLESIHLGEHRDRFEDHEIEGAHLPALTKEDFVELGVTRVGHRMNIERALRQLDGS

For the compound “KTMPAATYRLLTGQEQPVYL (Biotin-KTMPAATYRLLTGQEQPVYL) [MINT-3]”, the Classification in experiment [1] is 1 (A450 nm 0-1). `CC(C)C[C@H](NC(=O)[C@H](CC(=O)O)NC(=O)[C@H](CO)NC(=O)[C@H](CCC(=O)O)NC(=O)CNC(=O)[C@H](Cc1ccc(O)cc1)NC(=O)[C@H](CC(C)C)NC(=O)[C@H](C)NC(=O)[C@H](CO)NC(=O)[C@H](CO)NC(=O)[C@H](Cc1ccccc1)NC(=O)[C@H](C)NC(=O)[C@H](C)NC(=O)[C@H](Cc1ccc(O)cc1)NC(=O)[C@H](CC(=O)O)NC(=O)[C@H](CC(C)C)NC(=O)[C@H](C)NC(=O)CNC(=O)[C@@H]1CCCN1C(=O)[C@@H](NC(=O)CCCC[C@@H]1SC[C@@H]2NC(=O)N[C@@H]21)C(C)C)C(=O)O` [a-actinin 2] (Biotin-VPGALDYAAFSSALYGESDL-OH; C-terminus assumed): the Classification in experiment [2] is on record as 1 (A450 nm 0-1).

With “A2AA_HUMAN (modified) (Biotin-HDFRRAFKKILARGDRKRIV; not fully specified)”, in experiment [3], the Classification was 3 (A450 nm 2-3).

Consider `CC[C@H](C)[C@H](NC(=O)[C@H](Cc1ccc(O)cc1)NC(=O)[C@H](CC(C)C)NC(=O)[C@H](CCC(N)=O)NC(=O)[C@H](Cc1c[nH]cn1)NC(=O)[C@H](CO)NC(=O)[C@H](C)NC(=O)[C@H](CC(C)C)NC(=O)[C@@H](NC(=O)[C@H](CC(=O)O)NC(=O)[C@H](CCSC)NC(=O)[C@H](Cc1ccccc1)NC(=O)[C@@H]1CCCN1C(=O)[C@H](CCCNC(=N)N)NC(=O)[C@@H](NC(=O)[C@H](CC(C)C)NC(=O)[C@H](CC(N)=O)NC(=O)[C@H](CC(=O)O)NC(=O)[C@@H](NC(=O)[C@H](CO)NC(=O)CCCC[C@@H]1SC[C@@H]2NC(=O)N[C@@H]21)[C@@H](C)O)C(C)C)[C@@H](C)O)C(=O)O` [presenilin-2] (Biotin-STDNLVRPFMDTLASHQLYI-OH; C-terminus assumed), for which the Classification in experiment [1] and in experiment [3] was 1 (A450 nm 0-1) in each case.

As to “PPATPSPRLALPAHHNATRL (Biotin-PPATPSPRLALPAHHNATRL) [Na+/Pi cotransporter 2]”, the Classification in experiment [2] was 4 (A450 nm 3-4).
